Laboratory results reported in patent publication US20250313632A1.
Read-outs that look alike come from different tables or passages of the source.

Assays:
[1] = molecular target: human B7-H3 protein (human) (UniProt Q5ZPR3); test: Octet (BLI) epitope binning on captured human B7-H3; competitor CA84D
[2] = molecular target: human B7-H3 protein (human) (UniProt Q5ZPR3); test: Octet (BLI) epitope binning on captured human B7-H3; competitor 72D1D11
[3] = molecular target: human B7-H3 protein (human) (UniProt Q5ZPR3); test: Octet (BLI) epitope binning on captured human B7-H3; competitor AHP05562
[4] = molecular target: human B7-H3 protein (human) (UniProt Q5ZPR3); test: Octet (BLI) epitope binning on captured human B7-H3; competitor AHP06345
[5] = molecular target: human B7-H3 expressed on A375 tumor cells (human) (UniProt Q5ZPR3); test: flow cytometry on A375 cells, MFI(PE); unit from the axis Conc (nM)
[6] = molecular target: human B7-H3 (4Ig) protein (his tag) (human) (UniProt Q5ZPR3); test: SPR (Biacore T200), antibody captured on Protein A chip, B7-H3 injected, 1:1 model
[7] = molecular target: human B7-H3 expressed on A375 tumor cells (human) (UniProt Q5ZPR3); test: flow cytometry on A375 cells, MFI(PE); unit from the axis Conc (nM); remark: listed apart in the source

Binder | inhibition ratio [1] [%] | inhibition ratio [2] [%] | inhibition ratio [3] [%] | inhibition ratio [4] [%] | EC50 [5] [nM] | Kd [6] [nM] | koff [6] [s⁻¹] | kon [6] [M⁻¹ s⁻¹] | EC50 [7] [nM]
72D1D11-z1 (antibody, V domains shown) VH: QVQLVQSGSELKKPGASVKVSCKASGYTFTNLGLNWVRQAPGQGLEWMGWINTAGGQPTYAEDFKGRFVFSLDTSVSTAYLQISSLKAEDTAVYYCARDDGYYYTMDYWGQGTTVTVSS VL: DIVMTQTPLSLPVTPGEPASISCRSSQSLVHSNGKTYLHWYLQKPGQSPQLLIYKVSNRFSGVPDRFSGSGSGTDFTLKISRVEAEDVGVYYCSQSTHVPWTFGGGTKLEIK | – | – | – | – | – | – | – | – | 0.63
72D1D11-z4 (antibody, V domains shown) VH: QVQLVQSGSELKKPGASVKVSCKASGYTFTNLGLNWVRQAPGQGLEWMGWINTAGGQPTYAEDFKGRFVFSLDTSVSTAYLQISSLKAEDTAVYYCARDDGYYYTMDYWGQGTTVTVSS VL: DIVMTQSPLSLPVTPGEPASISCRSSQSLVHSNGKTYLHWYLQKPGQSPQLLIYKVSNRFSGVPDRFSGSGSGTDFTLKISRVEAEDVGVYFCSQSTHVPWTFGGGTKLEIK | – | – | – | – | – | – | – | – | 0.49
72D1D11-z7 (antibody, V domains shown) VH: QVQLVQSGSELKKPGASVKVSCKASGYTFTNLGLNWVRQAPGQGLEWMGWINTAGGQPTYAEDFKGRCVFSLDTSVSTAYLQISSLKAEDTAVYYCARDDGYYYTMDYWGQGTTVTVSS VL: DIVMTQSPLSLPVTPGEPASISCRSSQSLVHSNGKTYLHWYLQKPGQSPQLLIYKVSNRFSGVPDRFSGSGSGTDFTLKISRVEAEDVGVYYCSQSTHVPWTFGGGTKLEIK | – | – | – | – | – | – | – | – | 0.52
72D1D11-z8 (antibody, V domains shown) VH: QVQLVQSGSELKKPGASVKVSCKASGYTFTNLGLNWVRQAPGQGLEWMGWINTAGGQPTYAEDFKGRCVFSLDTSVSTAYLQISSLKAEDTAVYYCARDDGYYYTMDYWGQGTTVTVSS VL: DIVMTQSPLSLPVTPGEPASISCRSSQSLVHSNGKTYLHWYLQKPGQSPQLLIYKVSNRFSGVPDRFSGSGSGTDFTLKISRVEAEDVGVYFCSQSTHVPWTFGGGTKLEIK | – | – | – | – | – | – | – | – | 0.46
72D1D11-z5 (antibody, V domains shown) VH: QVQLVQSGSELKKPGASVKVSCKASGYTFTNLGLNWVRQAPGQGLEWMGWINTAGGQPTYAEDFKGRCVFSLDTSVSTAYLQISSLKAEDTAVYYCARDDGYYYTMDYWGQGTTVTVSS VL: DIVMTQTPLSLPVTPGEPASISCRSSQSLVHSNGKTYLHWYLQKPGQSPQLLIYKVSNRFSGVPDRFSGSGSGTDFTLKISRVEAEDVGVYYCSQSTHVPWTFGGGTKLEIK | – | – | – | – | – | – | – | – | 0.51
72D1D11-z6 (antibody, V domains shown) VH: QVQLVQSGSELKKPGASVKVSCKASGYTFTNLGLNWVRQAPGQGLEWMGWINTAGGQPTYAEDFKGRCVFSLDTSVSTAYLQISSLKAEDTAVYYCARDDGYYYTMDYWGQGTTVTVSS VL: DIVMTQTPLSLPVTPGEPASISCRSSQSLVHSNGKTYLHWYLQKPGQSPQLLIYKVSNRFSGVPDRFSGSGSGTDFTLKISRVEAEDVGVYFCSQSTHVPWTFGGGTKLEIK | – | – | – | – | – | – | – | – | 0.54
72D1D11-z2 (antibody, V domains shown) VH: QVQLVQSGSELKKPGASVKVSCKASGYTFTNLGLNWVRQAPGQGLEWMGWINTAGGQPTYAEDFKGRFVFSLDTSVSTAYLQISSLKAEDTAVYYCARDDGYYYTMDYWGQGTTVTVSS VL: DIVMTQTPLSLPVTPGEPASISCRSSQSLVHSNGKTYLHWYLQKPGQSPQLLIYKVSNRFSGVPDRFSGSGSGTDFTLKISRVEAEDVGVYFCSQSTHVPWTFGGGTKLEIK | – | – | – | – | – | – | – | – | 0.52
72D1D11-z3p2 (antibody, V domains shown) VH: QVQLVQSGSELKKPGASVKVSCKASGYTFTNLGLNWVRQAPGQGLEWMGWINTAGGQPTYAEDFKGRFVFSLDTSVSTAYLQISSLKAEDTAVYYCARDDGYYYTMDYWGQGTTVTVSS VL: DIVMTQSPLSLPVTPGEPASISCRSSQSLVHSQGKTYLHWYLQKPGQSPQLLIYKVSNRFSGVPDRFSGSGSGTDFTLKISRVEAEDVGVYYCSQSTHVPWTFGGGTKLEIK | – | – | – | – | 0.3 | – | – | – | –
72D1D11-z3p1 (antibody, V domains shown) VH: QVQLVQSGSELKKPGASVKVSCKASGYTFTNLGLNWVRQAPGQGLEWMGWINTAGGQPTYAEDFKGRFVFSLDTSVSTAYLQISSLKAEDTAVYYCARDDGYYYTMDYWGQGTTVTVSS VL: DIVMTQSPLSLPVTPGEPASISCRSSQSLVHSNAKTYLHWYLQKPGQSPQLLIYKVSNRFSGVPDRFSGSGSGTDFTLKISRVEAEDVGVYYCSQSTHVPWTFGGGTKLEIK | – | – | – | – | 0.36 | – | – | – | –
106A5B3 (antibody, V domains shown) VH: EVQLVESGGDLVKPGGSLKLSCAASGFTFSSYGMSWVRQTPDKRLEWVATISSGGSYIYYPDSMKGRFTISRDNAKNTLYLQMSSLQSEDTAIYYCASDYGSRYFDYWGQGTTLTVSS VL: QIVLTQSPAIMSASPGEKVTMTCSASSSVIYMSWYKQKPGSSPRLLIYDTSNLASGVPVRFSGSGSGTSYSLTISRMEAEDAATYYCQQWSSYPRTFGGGTKLEIK | -15.8 | 96.8 | 89.6 | -13 | 0.1 | 0.476 | 0.000396 | 833000 | –
62H9H5 (antibody, V domains shown) VH: QVQLQQSGAELAKPGASVKMSCKASGYTFTNYWIHWVKQRPGQGLEWIGYISPSTGYTEYNQKFKGKATLTAVKSSSTAFMQLSSLTSEDSAVYFCARGTGYWGQGTTLTVSS VL: DIQMTQSPASLSASVGESVTITCRASENIYSFFAWYQQKEGKSPQLLVYNAKTLEEGVPSRFSGSGSGTQFSLKINSLQPEDFGSYYCQHNYVSPFTFGSGTKLEIK | -6.07 | 95.5 | 90.2 | -7.1 | 0.042 | 0.464 | 0.00016 | 346000 | –
97E6B2 (antibody, V domains shown) VH: QVQLQQPGAELVKPGASVKMSCKASGYTFTSYWITWVKQRPGQGLEWIGDIYPGSNNTYYNEKFKSKATLTVDTSSSTAYIQLSSLTSEDSAVYYCARLIMSLFDYSGQGTTLTVSS VL: ENVLTQSPANMSASPGEKVTMTCSVSSSVSYIHWYQQKSSTSPTLWIYDTSKLASGVPGRFSGSGSGNSYALTISSMEAEDVATYYCFQGSAYPLTFGAGTKLELK | -3.99 | 99.7 | -7.8 | -1.18 | 0.26 | 0.743 | 0.000481 | 647000 | –

Continued, values first:

inhibition ratio [1] [%] | inhibition ratio [2] [%] | inhibition ratio [3] [%] | inhibition ratio [4] [%] | EC50 [5] [nM] | Kd [6] [nM] | koff [6] [s⁻¹] | kon [6] [M⁻¹ s⁻¹] | EC50 [7] [nM] | Binder
5.28 | 98 | 92.3 | 1.99 | 0.08 | 2.49 | 0.000824 | 331000 | – | 216E7A9 (antibody, V domains shown) VH: DVQLVESGGGLVQPGGSRKLSCAASGFTFSSFGMHWVRQAPEKGLEWVAYISSGSSTIYYADTVRGRFTISRDNPKNTLFLQMTSLRSEDTAMYYCARGGDYYYALDYWGQGTSVTVSS VL: DIQMTQSPASLSVSVGETVTITCRASENIHSNLEWYQQKQGKSPQLLVYAATNLADGVPSRFSGSGSGTQYSLKINSLQSEDFGSYYCQHFWGTPFTFGSGTKLEIK
-9.58 | 96.6 | -22.2 | -5.98 | 0.22 | 0.837 | 0.000367 | 438000 | – | 126C10B10 (antibody, V domains shown) VH: GVQLQQSGAELVKPGASVKLSCTGSGFNIKDPYIHWVKQRPEQGLEWIGRIDPANGNTKYGPRFQGRATMTADTSSNTANLQLSSLTSEDTAVYYCTTWNYYLSRGFDYWGQGTTLTVSS VL: QIVLTQSPAIMSASPGEKVTMTCSARSSVTYMHWYQQKSGTSPKRWIYDTSKLASGVPARFSGSGSGTSYSLTISSMEAEDAATYYCQQWTSNPLTFGAGTKLELK
-12 | -5 | 90 | -7.53 | 0.087 | 2.92 | 0.00135 | 463000 | – | 294A3C4 (antibody, V domains shown) VH: QVQLQQPGAELVKPGASVKLSCKASGYTFTSYWMHWVKQRPGQGLEWIGMFHPNSGTTNYNEKFKSKATLTVDKSSSTAYMQLSSLTSEDSAVYYCARRLGIFFDYWGQGTTLTVSS VL: DIVMTQSPSSLTVTAGEKVTMSCRSSQSLLNSGNQKNYLTWYQQKPGQPPKLLIYWASTRDSGVPDRFTGSGSGTDFTLTISSVQTEDLAVYYCQTDYSYPFTFGSGTKLEIK
-13.6 | -13.9 | 91.7 | -10.6 | 2.4 | 0.738 | 0.00396 | 5.37e+06 | – | AHP06358 (antibody, V domains shown) VH: EVQLVQSGAEVKKPGASVKVSCKASGYTFTSYGISWVRQAPGQGLEWMGWISAYNGNTNYAQKLQGRVTMTTDTSTSTAYMELRSLRSDDTAVYYCARDSPLQIAVAGYYYGMDVWGQGTTVTVSS VL: NFMLTQPHSVSESPGKTVTISCTRSSGSIVSGYVQWYQQRPGSAPSTVIYEHNQRPSGVPDRFSGSIDSSSNSASLTISGLRTEDEADYYCQSYDSRNMIFGGGTKLTVL
-5.46 | 97.1 | 90 | -5.22 | 0.093 | 0.619 | 0.000368 | 595000 | – | 227E12D1 (antibody, V domains shown) VH: EVKLVESGGGLVKPGGSLKLSCAASGFTFSSYGMSWVRQTPEKRLEWVATISGGGTYTYYPDSVKGRFTISRDNAKNNLYLQMSSLRSDDTALYYCARHEGLVMDYWGQGTSVTVSS VL: DIQMTQSPASLSASVGETVTITCRASENIYSYLAWYQQKQGKSPQLVVYNAKTLAEGVPSRFSGSGSGTQFSLKINSLQPEDFGTYYCQHHYGPPPYTFGGGTKLEIK
